Test results from US10925971B2, “Methods of treating PRLR positive breast cancer” (Regeneron Pharmaceuticals, Inc., priority 2016, dated 2021).

T1: monkey PRLR on HEK293/mfPRLR cells (Macaca fascicularis, UniProt A0A2K5WXK1)
T1 construct: HA; expressed in transfected cells; host or cells: HEK293
T1 sequence (A0A2K5WXK1 25-619): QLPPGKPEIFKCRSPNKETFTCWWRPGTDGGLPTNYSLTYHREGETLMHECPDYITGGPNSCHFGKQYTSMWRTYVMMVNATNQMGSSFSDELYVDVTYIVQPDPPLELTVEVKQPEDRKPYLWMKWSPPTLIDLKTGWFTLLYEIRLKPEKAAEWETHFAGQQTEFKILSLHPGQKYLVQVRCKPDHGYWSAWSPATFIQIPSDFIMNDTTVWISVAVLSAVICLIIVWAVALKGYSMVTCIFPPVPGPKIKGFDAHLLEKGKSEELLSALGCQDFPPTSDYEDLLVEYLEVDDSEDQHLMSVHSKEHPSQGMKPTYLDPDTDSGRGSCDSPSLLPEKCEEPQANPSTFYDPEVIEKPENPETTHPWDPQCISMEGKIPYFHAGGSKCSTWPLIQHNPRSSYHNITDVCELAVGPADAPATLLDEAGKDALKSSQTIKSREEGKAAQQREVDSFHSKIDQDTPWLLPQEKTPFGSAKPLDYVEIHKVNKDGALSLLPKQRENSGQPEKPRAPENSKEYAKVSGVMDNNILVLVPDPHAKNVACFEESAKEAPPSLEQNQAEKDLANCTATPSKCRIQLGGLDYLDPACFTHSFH

T2: human PRLR on HEK293/hPRLR cells (Homo sapiens, UniProt P16471)
T2 construct: HA; expressed in transfected cells; host or cells: HEK293
T2 sequence (P16471 25-622): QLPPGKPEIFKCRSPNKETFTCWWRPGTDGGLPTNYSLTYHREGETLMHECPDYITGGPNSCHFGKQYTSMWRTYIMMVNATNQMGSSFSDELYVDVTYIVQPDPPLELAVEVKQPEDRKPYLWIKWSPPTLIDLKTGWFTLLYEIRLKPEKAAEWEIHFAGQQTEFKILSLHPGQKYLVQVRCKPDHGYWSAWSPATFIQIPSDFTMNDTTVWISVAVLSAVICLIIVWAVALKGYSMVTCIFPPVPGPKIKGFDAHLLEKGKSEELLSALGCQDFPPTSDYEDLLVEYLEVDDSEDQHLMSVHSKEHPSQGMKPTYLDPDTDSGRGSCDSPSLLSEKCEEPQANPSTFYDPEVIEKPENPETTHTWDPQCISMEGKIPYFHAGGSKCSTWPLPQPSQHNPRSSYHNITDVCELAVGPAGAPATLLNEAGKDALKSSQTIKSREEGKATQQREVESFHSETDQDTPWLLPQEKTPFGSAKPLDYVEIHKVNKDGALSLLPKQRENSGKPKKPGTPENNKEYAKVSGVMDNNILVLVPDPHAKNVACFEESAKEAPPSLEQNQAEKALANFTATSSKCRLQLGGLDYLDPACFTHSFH

T3: native PRLR expressing T47D cells (Homo sapiens, UniProt P16471)
T3 construct: a native PRLR expressing cell line (T47D); endogenous in cells; host or cells: T47D
T3 sequence (P16471 25-622): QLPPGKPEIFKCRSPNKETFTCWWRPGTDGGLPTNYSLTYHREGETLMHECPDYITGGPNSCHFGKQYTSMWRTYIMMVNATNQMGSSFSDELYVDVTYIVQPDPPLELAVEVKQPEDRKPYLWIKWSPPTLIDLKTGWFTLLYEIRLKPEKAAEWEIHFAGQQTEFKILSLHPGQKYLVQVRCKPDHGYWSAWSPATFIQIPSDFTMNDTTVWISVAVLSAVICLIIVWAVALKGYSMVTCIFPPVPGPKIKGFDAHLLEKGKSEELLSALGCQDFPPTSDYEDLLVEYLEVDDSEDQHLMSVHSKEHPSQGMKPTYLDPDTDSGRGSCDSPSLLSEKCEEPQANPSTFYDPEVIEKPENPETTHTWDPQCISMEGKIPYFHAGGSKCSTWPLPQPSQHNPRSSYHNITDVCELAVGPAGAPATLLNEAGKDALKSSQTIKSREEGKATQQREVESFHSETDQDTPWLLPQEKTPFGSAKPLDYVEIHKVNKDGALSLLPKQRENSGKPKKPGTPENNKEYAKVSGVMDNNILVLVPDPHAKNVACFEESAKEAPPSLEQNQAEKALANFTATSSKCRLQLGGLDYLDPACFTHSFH


How the values were obtained:
[1] = system: PC3/PRLR tumors; assay: PC3/PRLR xenograft, tumor size and tumor growth inhibition; format: in vivo, SCID mice; settings: SCID mice, multi-dose 15 mg/kg
In short: (§1)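 MCF7/PRLR cells in mammary fat pad of female NCr nude mice, PC3/PRLR in flank of male SCID, T47D #11 in flank of female CB17 SCID, all with estrogen pellets.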

[2] = system: MCF7/PRLR tumors; assay: MCF7/PRLR breast cancer xenograft, tumor size and tumor growth inhibition; format: in vivo, NCr nude mice; settings: NCr Nude mice, multi-dose 15 mg/kg
In short: as §1

[3] = biological target: T1, monkey PRLR on HEK293/mfPRLR cells; assay: FACS cell surface binding
In short: (§2)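 Values are mean fluorescence intensity relative to an isotype control (background). Antibodies at 10 μg/ml were incubated on ice for 30 min with HEK293 lines stably overexpressing HA-tagged species PRLR or with parental cells. A PE-conjugated anti-human secondary was used for detection.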

[4] = biological target: T2, human PRLR on HEK293/hPRLR cells; assay: FACS cell surface binding
In short: as §2

[5] = biological target: T3, native PRLR expressing T47D cells; assay: FACS cell surface binding
In short: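 Flow cytometry on native PRLR-expressing T47D cells, alongside PRLR-overexpressing and parental HEK293 lines. Cells (1×10^5) incubated with antibody at 10 μg/ml, 30 min on ice, then PE anti-human secondary; binding reported as MFI fold over isotype control.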

[6] = PC3/PRLR tumors TRIAL #2, Day 55
[7] = MCF7/PRLR tumors TRIAL #2, Day 63
[8] = PC3/PRLR tumors TRIAL #1, Day 63

| Molecule | Average Tumor Growth Inhibition (%) [1, 6] [%] | Final Tumor size mm^3 (mean ± SEM) [1, 6] [mm^3] | Average Tumor Growth Inhibition (%) [2, 7] [%] | Final Tumor size mm^3 (mean ± SEM) [2, 7] [mm^3] | FACS Cell Binding [3] [Fold Above Background] | FACS Cell Binding [4] [Fold Above Background] | FACS Cell Binding [5] [Fold Above Background] | Average Tumor Growth Inhibition (%) [1, 8] [%] | Final Tumor size mm^3 (mean ± SEM) [1, 8] [mm^3] | Final Tumor size mm^3 (mean ± SEM) ([2]; MCF7/PRLR tumors TRIAL #1, Day 52) [mm^3] |
| --- | --- | --- | --- | --- | --- | --- | --- | --- | --- | --- |
| H1H6782P: fully human anti-PRLR antibody, non-blocking; HCVR/LCVR SEQ ID NOs 66/74 (antibody, V domains shown) VH: EVQLVESGGGLVQPGRSLRLSCAASGFTFDDYAMHWVRQAPGKGLEWVSGIIWNSGHIGYGDSVKGRFTISRDNAKKSLYLQMNSLRAEDTALYYCARDSGRYQSYFDYWGQGTLVTVSS VL: DIQMTQSPSTLSASVGDRVTITCRASHIISSWLAWYQQKPGKAPKVLIFKASSLESGVPSRFSGSGSGTEFTLTISSLQPDDFATYYCQQYNTYSRTFGQGTKVEIK | 6 | 1154 ± 212 | 88 | 300 ± 83 | 32 | 41 | 43 |  |  |  |
| H1H6953N: anti-PRLR antibody, human IgG1 Fc form of H1M6953N of Table 1; HCVR/LCVR SEQ ID NOs 274/282 (antibody, V domains shown) VH: EVQLLESGGGLVQPGGTLRLSCAASGFTFSAYAMSWVRQAPGKGLEWVSSINVRAGDTYYADSVKGRFTISRDNSKNTLFLLMNSLRAEDTAAYYCAKARYSSNWGFDFWGQGTLVTVSS VL: DIVMTQSPDSLTVSLGARTTINCQSSQTILHSSNNHNYLAWYQQKPGLPPKLLIYWSSTRESGVPDRFSGSGSGTDFTLTISSLQAEDVAIYYCQQYSNTPYTFGQGTKLEIN |  |  |  |  | 29 | 37 | 40 | 0 | 1306 ± 127 | 421 ± 23 |
